Assay results taken from patent US20200024338A1 (Stanford University, published 2020).

T1: Human ZNRF3 ECD (amino acids 56-219) (human, UniProt Q9ULT6 56-219, site-specifically biotinylated by BirA ligase at the C-terminal biotin-acceptor peptide)
T1 construct: range 56-219; The methods say that ZNRF3 means the ECD only; also called ZNR3 ECD; biotinylated ZNRF3
T1 sequence: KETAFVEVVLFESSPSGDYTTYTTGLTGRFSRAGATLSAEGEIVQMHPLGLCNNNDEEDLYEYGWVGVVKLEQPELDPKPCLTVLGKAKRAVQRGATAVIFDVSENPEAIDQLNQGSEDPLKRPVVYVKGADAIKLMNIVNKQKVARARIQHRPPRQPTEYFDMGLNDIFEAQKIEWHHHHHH

T2: Human RNF43 Extracellular Domain (ECD) (amino acids 24-197) (human, UniProt Q68DV7 24-197, site-specifically biotinylated by BirA ligase at the C-terminal biotin-acceptor peptide)
T2 construct: range 24-197; The methods say that RNF43 means the ECD only; also called RNF43 ECD; biotinylated RNF43
T2 sequence: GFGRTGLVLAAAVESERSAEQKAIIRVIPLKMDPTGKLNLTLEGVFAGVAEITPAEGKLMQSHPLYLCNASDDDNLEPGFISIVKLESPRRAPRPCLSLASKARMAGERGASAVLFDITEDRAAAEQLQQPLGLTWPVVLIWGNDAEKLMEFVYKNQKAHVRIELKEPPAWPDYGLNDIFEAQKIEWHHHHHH


Columns and labels:
[1] = molecular target: T1, Human ZNRF3 ECD (amino acids 56-219); assay: yeast surface display titration: scFv-displaying yeast with increasing ZNRF3, flow cytometry, normalized MFI
Description: (§1) Plasmids from the final round of selection were isolated using the Zymoprep Yeast Plasmid Miniprep Kit (Zymo Research) and sequenced. These plasmids were electroporated into S. cerevisiae EBY100 yeast and recovered in SDCAA selection media, followed by induction in SGCAA induction media. The individual scFv-transformed yeast were incubated with increasing concentration of biotinylated RNF43/ZNRF3. These yeast were stained with SA-647 and Myc-488 and fluorescence was monitored by flow cytometry. The data were analyzed by GraphPad Prism 7 and the highest affinity clones were identified for subsequent experiments.

[2] = molecular target: T2, Human RNF43 Extracellular Domain (ECD) …; assay: yeast surface display titration: scFv-displaying yeast with increasing RNF43, flow cytometry, normalized MFI
Description: as §1

Binder | EC50 [1] [nM] | EC50 [2] [nM]
Z6 scFv (scFv) scFv: ASQVQLVQSGAEVKNPGASVKVSCKASGYAFTSYGISWVRQAPGQGLEWMGWISAYTRNTNYAQKFQGRVTLTTDTSTSTAYMELRSLRSDDTAIYYCARDARYSLGVGAFDVWGQGTMVTVSSGILGSGGGGSGGGGSGGGGSETTLTQSPAFMSATPGDKVSISCKASRDIDDDLNWYQQKPGEAAISIIQEATTLVPGIPPRFSGSGYGTDFTLTINNIESEDAAYYFCLQHDDVPYTFGQGTKLEIKSGIL | 113 | 
R5 scFv (scFv) scFv: ASQITLKESGPTLVKPTQTLTLTCSFSGFSLSFSGVGVAWIRQPPGKALEWLALIYWDDDKRYSPSLKSRLTITKDTSKNQVVLTMTNMDPLDTATYYCAHREWKAFGAFDIWGQGTMVTVSSGILGSGGGGSGGGGSGGGGSQPVLTQSPSASGTPGQRVTISCSGSSSNIGSNTVNWYQQLPGTAPKLLIYSNNQRPSGVPDRFSGSKSVTSASLAISGLQSEDEAEYYCATWDDSLNGAVFGGGTQLTVLSGILG |  | 122
